Experiment [1] concerns the target PF3D7_0800200 (ATS domain, 2,466-2,858 aa)-His (Plasmodium falciparum) (UniProt Q8IAK2). Put plainly: BLI; Octet K2; ATS-His loaded onto Ni-NTA biosensors; GST-tagged analyte diluted from 1,000 to 62.5 nM in PBS with 0.02% Tween-20; association and dissociation 5 min each; non-linear global fit. (In general: BLI is a label-free optical method that tracks binding on a fibre tip over time.)

For experiment [2], the target named is T1, PF3D7_0800200 (acidic C-terminal segment (ATS) domain, 2,466-2,858 aa)-His (Plasmodium falciparum, UniProt Q8IAK2 2466-2858).
T1 construct: the reverse primer has no stop codon), which would give a C-terminal His tag; also called ATS-His; PfEMP1 ATS; source: E. coli BL21 (DE3), purified
T1 sequence: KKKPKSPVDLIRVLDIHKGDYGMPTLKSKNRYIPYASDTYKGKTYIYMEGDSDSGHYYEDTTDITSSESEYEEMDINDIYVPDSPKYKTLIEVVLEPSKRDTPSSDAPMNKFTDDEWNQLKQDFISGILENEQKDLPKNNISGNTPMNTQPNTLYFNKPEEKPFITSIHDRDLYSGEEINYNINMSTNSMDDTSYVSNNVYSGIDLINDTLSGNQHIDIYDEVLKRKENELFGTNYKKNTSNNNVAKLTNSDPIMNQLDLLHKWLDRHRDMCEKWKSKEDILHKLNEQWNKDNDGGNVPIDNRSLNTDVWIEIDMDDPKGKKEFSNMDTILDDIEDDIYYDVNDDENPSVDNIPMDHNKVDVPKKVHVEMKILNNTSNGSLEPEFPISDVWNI
Put plainly: BLI; Octet K2 (ForteBio); ATS-His loaded onto Ni-NTA biosensors; GST-tagged protein in solution diluted from 1,000 to 62.5 nM in PBS with 0.02% Tween-20; association and dissociation 5 min each; non-linear global fit; KD calculated as Kdis/Kon. The settings on record: both partners purified.

The target of experiment [3] is T2, PF3D7_0800200 (ATS domain, 2,466-2,858 aa)-His (Plasmodium falciparum, UniProt Q8IAK2 2466-2858).
T2 construct: Cloned into pET-28a; also called ATS-His; PfEMP1 ATS; source: E. coli BL21 (DE3), purified
T2 sequence: T1 sequence
Put plainly: BLI; Octet K2; ATS-His loaded onto Ni-NTA biosensors; GST-tagged analyte diluted from 1,000 to 62.5 nM in PBS with 0.02% Tween-20; association and dissociation 5 min each; non-linear global fit. The settings on record: both partners purified.

Some results are limits rather than exact numbers.

For orientation: Kd means the concentration at which binding is half-saturated. Read a high Kd as lower affinity. As for GST, the equilibrium dissociation constant (Kd) in experiment [1] was < 0.001 nM.

B1: PF3D7_1372300-(27-129)-GST (domain or fragment)
chain: RNEIHKNSLGFGKNDNIYSRNLAQLKLSNYSLLKDSKFESVTEQLTREELYELFDLLVQVPPRTYLLNIWNHKNGICRQGTKDLLKNLRGIAPKLTYRHTGNT
notes: PF3D7_1372300, a PHIST/PHISTa-like protein of Plasmodium falciparum, residues 27-129; purified 'according to the methods described above'; also called PF3D7_1372300 (residues 27-129); source: E. coli BL21 (DE3), purified
A word on the koff: it is a measure of how fast the partners let go of each other. For orientation: kon means a measure of how fast the partners come together. Consider B1, for which, in experiment [2], the off-rate (koff) is 0.000844 s⁻¹ and the kon is 6630 M⁻¹ s⁻¹.

B2: PF3D7_1372300-(27-129)-GST (domain or fragment)
chain: B1 chain
notes: PF3D7_1372300, PHIST/PHISTa-like protein of Plasmodium falciparum, residues 27-129; source: E. coli BL21 (DE3), purified (according to the methods described for the other recombinant proteins)
In turn, B2 came in with an equilibrium dissociation constant (Kd) in experiment [3] of 127 nM.

B3: PF3D7_1372300-(130-206)-GST (domain or fragment)
chain: NQYGKSPPKITWQGCSYDCNMMVSTLETEQTNRFYNLLNKKAPIDEIKSFIRSCIDEFDKLHTDLYVKYEKIFSEQK
notes: PF3D7_1372300, a PHIST/PHISTa-like protein of Plasmodium falciparum, residues 130-206; purified 'according to the methods described above'; also called PF3D7_1372300 (residues 130-206); source: E. coli BL21 (DE3), purified
B3: in experiment [2], the dissociation rate constant (koff) was 0.000158 s⁻¹ and the kon is 6960 M⁻¹ s⁻¹.

B4: PF3D7_1372300-(130-206)-GST (domain or fragment)
chain: B3 chain
notes: PF3D7_1372300, PHIST/PHISTa-like protein of Plasmodium falciparum, residues 130-206; source: E. coli BL21 (DE3), purified (according to the methods described for the other recombinant proteins)
In experiment [3], B4 showed a Kd of 22.6 nM.

B5: PF3D7_1372300 (27-206 aa)-GST (domain or fragment)
chain: RNEIHKNSLGFGKNDNIYSRNLAQLKLSNYSLLKDSKFESVTEQLTREELYELFDLLVQVPPRTYLLNIWNHKNGICRQGTKDLLKNLRGIAPKLTYRHTGNTNQYGKSPPKITWQGCSYDCNMMVSTLETEQTNRFYNLLNKKAPIDEIKSFIRSCIDEFDKLHTDLYVKYEKIFSEQK
notes: PF3D7_1372300, a PHIST/PHISTa-like protein of Plasmodium falciparum, residues 27-206 (without the 25-residue signal peptide), amplified from P. falciparum cDNA; the reverse primer carries a stop codon; also called PF3D7_1372300-GST; 1372300-GST; source: E. coli BL21 (DE3), purified
With B5, in experiment [2], the koff was 0.000756 s⁻¹ and the on-rate (kon) was 6330 M⁻¹ s⁻¹.

B6: PF3D7_1372300 (27-206 aa)-GST (domain or fragment)
chain: B5 chain
notes: PF3D7_1372300, PHIST/PHISTa-like protein of Plasmodium falciparum, residues 27-206 (without the 25 amino acid signal peptide), amplified from P. falciparum cDNA; Cloned into pGEX-4T-1; also called PF3D7_1372300-GST; PHIST/PHISTa-like protein; source: E. coli BL21 (DE3), purified
With B6, in experiment [3], binding was characterised by a dissociation constant (Kd) of 119 nM.

The values above are taken from PMC7691434, “Interaction Analysis of a Plasmodium falciparum PHISTa-like Protein and PfEMP1 Proteins” (Frontiers in Microbiology, 2020).
